# Source: PMC12541621
# Biological target: Recombinant Human HER2 ECD (human) (UniProt P04626)
# Assay: SPR
substance,measurement,value
ABY-025 (designed binder),Kd,0.107 nM
